Laboratory results as given in US20100261778, “Tumor Suppressor Killin” (published 2010).

Molecular target: T1, Killin/N8-50 peptide (Homo sapiens, UniProt B2CW77 SEQ:8-49)
T1 chain: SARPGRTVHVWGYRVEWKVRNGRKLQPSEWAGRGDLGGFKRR
Assay: EMSA; apparent Kd; 20 mM Tris-Cl pH 8.4, 25 mM KCl, 1.5 mM MgCl2, 100 ug/mL BSA, RT
Details: protein: synthetic, tags: chemically synthesized 42 aa peptide (Sigma-Genosys, at least 70% purity)
Excerpt: After annealing, probes for artificial replication fork (LL and RL) or double-stranded DNA template (LL and RLM) were end-labeled with α-³²P-dATP (Perkin-Elmer) using Klenow (New England Biolab). Single-stranded oligonucleotide (LL) was end-labeled with […] (Perkin-Elmer) using T4 polynucleotide kinase (New England Biolab). After purifying with Sephadex-G50 spin columns (Roche), the labeled probes (200,000 CPM each) were mixed with an increasing amount of Killin/N8-50 peptide in the presence of 20 mM Tris-Cl (pH 8.4), 25 mM KCl, 1.5 mM MgCl₂ and 100 μg/mL of BSA. The reaction mixtures were incubated at RT for 30 min and separated on a 6% polyacrylamide gel with 1× TBE buffer. After drying the gel onto a Whatman No. 1 filter paper, the DNA-protein complexes were visualized by autoradiography. For binding kinetics, bands from DNA-peptide complex were excised and the radioactivity was determined by scintillation counting. To determine the stability of the DNA-Killin peptide complex, 0.5 μg of either double-stranded (RF form) or single-stranded (viral form) of PhiX174 bacterial phage DNA (New England Biolab) were incubated at room temperature for 30 min with 1 ug of Killin/N8-50 peptide in a 20 μL reaction. The samples were then resolved on a 0.8% TAE agarose gel and stained with ethidium bromide.

Binder: TTTGCACGTCGGATCCGACCCAGACTACGGAGGCC (ssDNA) [LL single-stranded oligonucleotide]
- Kd (label: 32P (T4 PNK)): 0.5 µM

B1: LL/RLM double-stranded DNA (dsDNA)
DNA 1: TTTGCACGTCGGATCCGACCCAGACTACGGAGGCC
DNA 2: GGCCTCCGTAGTCTGGGTCGGATCCGACGTGC
- Kd (label: 32P (Klenow fill-in)): 1 µM

B2: LL/RL artificial replication fork (structured_DNA)
DNA 1: TTTGCACGTCGGATCCGACCCAGACTACGGAGGCC
DNA 2: CCGGAGGCATCAGACGGTCGGATCCGACGTGC
- Kd (label: 32P (Klenow fill-in), replication fork with unpaired arms): 1 µM
